B1: E3 ubiquitin-protein ligase RNF8 (Homo sapiens), O76064 (parent)
chain: MGEPGFFVTGDRAGGRSWCLRRVGMSAGWLLLEDGCEVTVGRGFGVTYQLVSKICPLMISRNHCVLKQNPEGQWTIMDNKSLNGVWLNRARLEPLRVYSIHQGDYIQLGVPLENKENAEYEYEVTEEDWETIYPCLSPKNDQMIEKNKELRTKRKFSLDELAGPGAEGPSNLKSKINKVSCESGQPVKSQGKGEVASTPSDNLDPKLTALEPSKTTGAPIYPGFPKVTEVHHEQKASNSSASQRSLQMFKVTMSRILRLKIQMQEKHEAVMNVKKQTQKGNSKKVVQMEQELQDLQSQLCAEQAQQQARVEQLEKTFQEEEQHLQGLEIAQGEKDLKQQLAQALQEHWALMEELNRSKKDFEAIIQAKNKELEQTKEEKEKMQAQKEEVLSHMNDVLENELQCIICSEYFIEAVTLNCAHSFCSYCINEWMKRKIECPICRKDIKSKTYSLVLDNCINKMVNNLSSEVKERRIVLIRERKAKRLF

Variants of: B1
Conditions: with chd4_human CHD4, Q14839
chd4_human CHD4, Q14839, sequence (Q14839 whole entry): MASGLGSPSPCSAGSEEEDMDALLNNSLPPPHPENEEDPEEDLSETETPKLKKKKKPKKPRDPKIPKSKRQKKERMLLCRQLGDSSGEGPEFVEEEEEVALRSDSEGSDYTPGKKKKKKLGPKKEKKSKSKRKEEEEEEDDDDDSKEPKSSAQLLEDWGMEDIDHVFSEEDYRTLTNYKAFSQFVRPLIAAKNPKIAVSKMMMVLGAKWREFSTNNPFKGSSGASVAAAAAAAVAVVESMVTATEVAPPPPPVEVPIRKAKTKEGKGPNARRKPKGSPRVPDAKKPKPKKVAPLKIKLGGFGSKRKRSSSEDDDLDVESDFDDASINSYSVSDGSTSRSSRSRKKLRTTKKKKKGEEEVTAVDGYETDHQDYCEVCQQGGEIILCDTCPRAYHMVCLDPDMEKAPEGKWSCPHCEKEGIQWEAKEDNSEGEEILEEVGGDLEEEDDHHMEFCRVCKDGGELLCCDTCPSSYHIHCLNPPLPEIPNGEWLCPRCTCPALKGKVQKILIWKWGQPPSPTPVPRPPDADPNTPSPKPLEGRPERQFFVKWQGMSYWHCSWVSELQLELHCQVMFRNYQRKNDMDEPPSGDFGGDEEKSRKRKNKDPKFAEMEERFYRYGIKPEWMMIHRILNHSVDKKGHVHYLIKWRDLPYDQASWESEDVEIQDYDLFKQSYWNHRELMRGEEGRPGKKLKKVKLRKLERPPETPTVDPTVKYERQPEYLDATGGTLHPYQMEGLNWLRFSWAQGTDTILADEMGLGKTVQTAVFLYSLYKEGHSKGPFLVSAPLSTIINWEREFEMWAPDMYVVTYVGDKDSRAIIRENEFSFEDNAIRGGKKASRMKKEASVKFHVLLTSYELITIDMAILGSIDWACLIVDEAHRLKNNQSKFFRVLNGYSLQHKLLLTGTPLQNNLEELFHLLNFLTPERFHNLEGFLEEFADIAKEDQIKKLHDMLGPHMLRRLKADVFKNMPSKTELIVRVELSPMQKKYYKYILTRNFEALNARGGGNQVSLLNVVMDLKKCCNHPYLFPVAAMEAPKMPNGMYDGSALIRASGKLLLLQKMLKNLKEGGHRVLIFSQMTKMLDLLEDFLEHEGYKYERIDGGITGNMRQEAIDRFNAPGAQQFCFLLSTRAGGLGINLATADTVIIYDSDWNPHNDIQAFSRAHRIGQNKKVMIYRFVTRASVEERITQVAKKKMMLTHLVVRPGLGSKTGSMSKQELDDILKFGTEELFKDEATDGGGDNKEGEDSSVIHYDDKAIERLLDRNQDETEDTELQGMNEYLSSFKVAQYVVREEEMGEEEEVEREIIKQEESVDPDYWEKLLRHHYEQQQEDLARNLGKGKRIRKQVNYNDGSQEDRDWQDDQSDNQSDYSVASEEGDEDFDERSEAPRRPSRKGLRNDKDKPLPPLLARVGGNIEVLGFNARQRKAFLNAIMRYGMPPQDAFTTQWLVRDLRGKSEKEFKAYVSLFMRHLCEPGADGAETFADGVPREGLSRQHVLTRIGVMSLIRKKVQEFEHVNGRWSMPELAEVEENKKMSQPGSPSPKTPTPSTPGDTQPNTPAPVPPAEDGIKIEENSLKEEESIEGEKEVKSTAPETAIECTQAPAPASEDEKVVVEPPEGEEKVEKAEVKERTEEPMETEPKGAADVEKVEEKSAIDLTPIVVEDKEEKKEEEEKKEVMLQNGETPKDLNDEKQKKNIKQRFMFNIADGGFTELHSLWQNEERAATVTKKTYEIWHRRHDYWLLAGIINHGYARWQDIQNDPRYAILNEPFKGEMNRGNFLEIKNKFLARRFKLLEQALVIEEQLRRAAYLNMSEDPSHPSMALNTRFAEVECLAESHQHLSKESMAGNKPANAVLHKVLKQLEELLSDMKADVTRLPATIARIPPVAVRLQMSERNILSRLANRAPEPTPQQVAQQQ

effect of a mutation on the interaction	Variant
increasing interaction	R42A
increasing interaction	C403S

Reference: IntAct's records for PubMed 22531782
